Results published in patent publication US20090130123A1 (published 2009).
Substitutions are numbered along the chain they refer to.

T1: Recombinant WNV-E protein ectodomain (West Nile virus, UniProt Q9Q6P4 291-700)
T1 construct: extracellular domain; also called rWNV-E; WNE
T1 sequence (looked up): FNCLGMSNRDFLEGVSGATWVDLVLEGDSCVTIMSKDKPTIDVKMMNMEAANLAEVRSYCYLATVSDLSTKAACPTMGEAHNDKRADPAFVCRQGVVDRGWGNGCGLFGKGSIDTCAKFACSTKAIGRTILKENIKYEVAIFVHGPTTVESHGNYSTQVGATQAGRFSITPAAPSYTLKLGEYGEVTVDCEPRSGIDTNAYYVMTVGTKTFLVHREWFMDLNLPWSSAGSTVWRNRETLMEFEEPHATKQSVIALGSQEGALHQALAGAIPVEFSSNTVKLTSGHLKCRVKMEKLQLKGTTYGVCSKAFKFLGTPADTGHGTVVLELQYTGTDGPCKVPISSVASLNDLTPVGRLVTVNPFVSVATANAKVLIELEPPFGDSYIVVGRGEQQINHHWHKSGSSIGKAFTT

T2: WNV E protein DIII displayed on yeast (Saccharomyces cerevisiae; West Nile …, UniProt Q9Q6P4 586-705)
T2 construct: domain: DIII; also called WNV DIII
T2 sequence: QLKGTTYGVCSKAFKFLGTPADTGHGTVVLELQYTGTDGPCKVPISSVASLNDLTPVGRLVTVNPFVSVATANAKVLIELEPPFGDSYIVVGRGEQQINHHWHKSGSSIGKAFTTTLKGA

B1: scFv 10 (scFv, not shown: small tags and cut ends)
scFv: MAQVQLVQSGAEVKKPGSSVKVSCKASGYTFSGYSTHWLRQVPGQGLEWIGWDNPSSGDTTYAENFRGRVTLTRDTSITTDYLEVRGLRSDDTAVYYCARGGDDYSFDHWGQGTLVTVSSSGGGSGGGGSGGGGSQTVVTQEPSFSVSPGGTITLTCGLSSGSVFTSYYPSWYQQTPGQAPRTLIYSTNTRSSGVPDRFSGSILGNKAALTITGAQADDESDYYCVLYMGSGIGVFGTGTKVTVLGQPKAAPSAAAEQKLISEEDL
notes: also called 10 scFv; antibody 10
B2: scFv 11 (scFv)
scFv: MAQVQLVQSGAEVKKPGASVKVSCKASGYTFSGYSTHWLRQVPGQGLEWIGWDNPSSGDTTYAENFRGRVTLTRDTSITTDYLEVRGLRSDDTAVYYCARGGDDYSFDHWGQGTLVTVSSGGGGSGGGGSGGGGSSSELTQDPAVSVALGQTVRITCRGDSLRSYYASWYQQKPGQAPVLVIYGENNRPSGIPDRFSGSSSGDTASLTITGAQAEDEADYYCNSRDSSDHLLLFGGGTKLTVLGQPKATPSAAAEQKLISEEDL
notes: also called 11 scFv; antibody 11
B3: scFv 69 (scFv, not shown: small tags and cut ends)
scFv: MAQVQLVQSGAEVKEPGSSVKVSCKASGGTFSNYPISWVRQAPGQGLEWMGGIIPITNSPGYAQKFQGRVTISADESTGTVYMELSSLRSEDTAIYYCAKDPNRYESGVLHYWHGLDVWGQGTTVTVSSGGGGSGGGGSGGGGSLPVLTQPPSASGTPGQTVTLSCSGSSSNIGSNTVNWYQQLPGTAPKLLIYSNNQRPSGVPDRFSASKSGTSASLAITGLQAEDEADYFCAAWDDSLVYVFGTGTKVTVLGQPKAAPSAAAEQKLISEEDL
notes: also called 69 scFv; antibody 69
B4: scFv 71 (scFv)
scFv: MAQVQLVQSGAEVKKPGASVKVSCKASGYTFSGYSTHWLRQVPGQGLEWIGWDNPSSGDTTYAENFRGRVTLTRDTSITTDYLEVRGLRSDDTAVYYCARGGDDYSFDHWGQGTLVTVSSGGGGSGGGGSGGGGSSYELTQPPSASGTTGQRVTISCSGSSSNIGSNTVNWYQQLPGTAPKLLIYSNNQRPSGVPDRLSGSKSGTSASLAISGLQSEDEADYYCAAWDARLTGPLFGGGTKLSVLRQPKAAPSAAAEQKLISEEDL
notes: also called 71 scFv; antibody 71
B5: scFv 73 (scFv)
scFv: B4 scFv with T149P, L198F
notes: also called 73 scFv; antibody 73
B6: scFv 79 (scFv)
scFv: MAQVQLVQSGAEVKKPGSSVKVSCKASGGTFSSYAISWVRQAPGQGLEWMGWMNSNTGDTGYAQKFQGRVTMTRNTSTSTAYMELSSLRSEDTAVYYCAKISNYHYYAMDVWGQGTLVTVSSGGGGSGGGGSGGGGSLPVLTQPPSASGTSGQTVTISCSGGSSNIGSHLVTWYQQFPGTAPKVLIHTNDQRPSGVPDRISGSKSGTSASLAISGLQSDDEGDYYCAAWDDSLNGYVFGTGTKVTVLGQPKATPSAAAEQKLISEEDL
notes: also called 79 scFv; antibody 79
B7: scFv 84 (scFv)
scFv: MAQVQLVQSGAEVKKPGASVKVSCKASGYTFSGYSTHWLRQVPGQGLEWIGWDNPSSGDTTYAENFRGRVTLTRDTSITTDYLEVRGLRSDDTAVYYCARGGDDYSFDHWGQGTLVTVSSGGGGSGGGGSGGGGSQSVLTQPPSVSVAPGKTARIPCGGNNSGTKSVHWYQQKPGQAPVLVIYDDRVRPSGIPERFSGSNSGDTATLTISRVAAGDEADYYCQVSDGSGDPPTWVFGGGTRLTVLGQPKAAPSAAAEQKLISEEDL
notes: also called 84 scFv; antibody 84
B8: scFv 85 (scFv, not shown: small tags and cut ends)
scFv: MAQVQLVQSGAEVKKPGASVKVSCKASGYTFSGYSTHWLRQVPGQGLEWIGWDNPSSGDTTYAENFRGRVTLTRDTSITTDYLEVRGLRSDDTAVYYCARGGDDYSFDHWGQGTLVTVSSGGGGSGGGGSGGGGSSSELTQDPAVSVALGQTVTITCQGGGLRNYYASWYQQKPGQAPVLLVYGRDNRPSGIPDRFSGSSSGNTASLTITGAQAEDEADYYCNSRDSSGNHLVFGGGTKLTVLGQPKATPSAAAEQKLISEEDL
notes: also called 85 scFv; antibody 85
B9: scFv 15 (scFv)
scFv: MAQVQLVQSGAEVKKPGASVKVSCKASGYTFSGYSTHWLRQVPGQGLEWIGWDNPSSGDTTYAENFRGRVTLTRDTSITTDYLEVRGLRSDDTAVYYCARGGDDYSFDHWGQGTLVTVSSGGGGSGGGGSGGGGSQSALTQPASVSGSPGQSITISCTGTNSDVGIYNLVSWYQQHPGKAPKLMIYDVSNRPSGVSSRFSGSNSGNTATLTISGLQAEDEADYYCSAHAGDNTQFGGGTKLTVLSQPKAAPSAAAEQKLISEEDL
notes: also called 15 scFv; antibody 15
B10: 79 scFv-Fc (Fc fusion)
chain: QVQLVQSGAEVKKPGSSVKVSCKASGGTFSSYAISWVRQAPGQGLEWMGWMNSNTGDTGYAQKFQGRVTMTRNTSTSTAYMELSSLRSEDTAVYYCAKISNYHYYAMDVWGQGTLVTVSSGGGGSGGGGSGGGGSLPVLTQPPSASGTSGQTVTISCSGGSSNIGSHLVTWYQQFPGTAPKVLIHTNDQRPSGVPDRISGSKSGTSASLAISGLQSDDEGDYYCAAWDDSLNGYVFGTGTKVTVLG
notes: also called scFv-Fc 79; antibody 79 (scFv-Fc)
B11: scFv-Fc 71 (Fc fusion)
chain: QVQLVQSGAEVKKPGASVKVSCKASGYTFSGYSTHWLRQVPGQGLEWIGWDNPSSGDTTYAENFRGRVTLTRDTSITTDYLEVRGLRSDDTAVYYCARGGDDYSFDHWGQGTLVTVSSGGGGSGGGGSGGGGSSYELTQPPSASGTTGQRVTISCSGSSSNIGSNTVNWYQQLPGTAPKLLIYSNNQRPSGVPDRLSGSKSGTSASLAISGLQSEDEADYYCAAWDARLTGPLFGGGTKLSVLR
notes: also called 71 scFv-Fc
B12: scFv-Fc 73 (Fc fusion)
chain: B11 chain with T147P, L196F
notes: also called 73 scFv-Fc
B13: scFv-Fc 11 (Fc fusion)
chain: QVQLVQSGAEVKKPGASVKVSCKASGYTFSGYSTHWLRQVPGQGLEWIGWDNPSSGDTTYAENFRGRVTLTRDTSITTDYLEVRGLRSDDTAVYYCARGGDDYSFDHWGQGTLVTVSSGGGGSGGGGSGGGGSSSELTQDPAVSVALGQTVRITCRGDSLRSYYASWYQQKPGQAPVLVIYGENNRPSGIPDRFSGSSSGDTASLTITGAQAEDEADYYCNSRDSSDHLLLFGGGTKL
notes: also called 11 scFv-Fc
B14: 10 (Fc fusion)
scFv-Fc chain: QVQLVQSGAEVKKPGSSVKVSCKASGYTFSGYSTHWLRQVPGQGLEWIGWDNPSSGDTTYAENFRGRVTLTRDTSITTDYLEVRGLRSDDTAVYYCARGGDDYSFDHWGQGTLVTVSSSGGGSGGGGSGGGGSQTVVTQEPSFSVSPGGTITLTCGLSSGSVFTSYYPSWYQQTPGQAPRTLIYSTNTRSSGVPDRFSGSILGNKAALTITGAQADDESDYYCVLYMGSGIGVFGTGTKVTVLG
notes: also called scFv-Fc 10; 10 scFv-Fc
B15: 84 scFv-Fc (Fc fusion)
chain: QVQLVQSGAEVKKPGASVKVSCKASGYTFSGYSTHWLRQVPGQGLEWIGWDNPSSGDTTYAENFRGRVTLTRDTSITTDYLEVRGLRSDDTAVYYCARGGDDYSFDHWGQGTLVTVSSGGGGSGGGGSGGGGSQSVLTQPPSVSVAPGKTARIPCGGNNSGTKSVHWYQQKPGQAPVLVIYDDRVRPSGIPERFSGSNSGDTATLTISRVAAGDEADYYCQVSDGSGDPPTWVFGGGTRLTVL
notes: also called scFv-Fc 84
B16: scFv-Fc 15 (Fc fusion)
chain: QVQLVQSGAEVKKPGASVKVSCKASGYTFSGYSTHWLRQVPGQGLEWIGWDNPSSGDTTYAENFRGRVTLTRDTSITTDYLEVRGLRSDDTAVYYCARGGDDYSFDHWGQGTLVTVSSGGGGSGGGGSGGGGSQSALTQPASVSGSPGQSITISCTGTNSDVGIYNLVSWYQQHPGKAPKLMIYDVSNRPSGVSSRFSGSNSGNTATLTISGLQAEDEADYYCSAHAGDNTQFGGGTKLTVLS
notes: also called 15 scFv-Fc

The binders below were run against T1, Recombinant WNV-E protein ectodomain (assay: SPR (Biacore 3000); scFv on NTA chip via His tag, rWNV-E in solution).

Point of comparison: B2, Ka 2.03e+08 M⁻¹. Against it:
- B1 — 7.7-fold lower, 2.64e+07 M⁻¹
- B3 — 12-fold lower, 1.69e+07 M⁻¹
- B4 — 5.6-fold lower, 3.64e+07 M⁻¹
- B5 — within 1.5-fold, 2.3e+08 M⁻¹
- B6 — within 1.5-fold, 1.87e+08 M⁻¹
- B7 — 7.7-fold lower, 2.65e+07 M⁻¹
- B8 — 3.7-fold higher, 7.45e+08 M⁻¹
- B9 — 2-fold lower, 1.04e+08 M⁻¹

Point of comparison: B5, Kd 4.35 nM. Against it:
- B1 — 8.7-fold higher, 37.8 nM
- B2 — within 1.5-fold, 4.92 nM
- B3 — 14-fold higher, 59.2 nM
- B4 — 6.3-fold higher, 27.5 nM
- B6 — within 1.5-fold, 5.35 nM
- B7 — 8.7-fold higher, 37.8 nM
- B8 — 3.2-fold lower, 1.34 nM
- B9 — 2.2-fold higher, 9.65 nM

Point of comparison: B1, koff 0.0212 s⁻¹. Against it:
- B2 — 13-fold lower, 0.00161 s⁻¹
- B4 — 8.2-fold lower, 0.00258 s⁻¹
- B5 — 9.4-fold lower, 0.00225 s⁻¹
- B6 — 32-fold lower, 0.00067 s⁻¹
- B7 — 3.1-fold lower, 0.00685 s⁻¹
- B8 — 3.2-fold lower, 0.00673 s⁻¹
- B9 — 17-fold lower, 0.00128 s⁻¹

Point of comparison: B4, kon 93900 M⁻¹ s⁻¹. Against it:
- B1 — 6-fold higher, 561000 M⁻¹ s⁻¹
- B2 — 3.5-fold higher, 326000 M⁻¹ s⁻¹
- B5 — 5.5-fold higher, 517000 M⁻¹ s⁻¹
- B6 — within 1.5-fold, 125000 M⁻¹ s⁻¹
- B7 — 1.9-fold higher, 181000 M⁻¹ s⁻¹
- B8 — 53-fold higher, 5.01e+06 M⁻¹ s⁻¹
- B9 — within 1.5-fold, 133000 M⁻¹ s⁻¹

Each binder was assayed against T1, Recombinant WNV-E protein ectodomain (assay: SPR (Biacore); scFv-Fc captured by goat anti-human IgG on CM4 chip, rWNV-E in solution).

Binder B10 has a Ka of 7.34e+10 M⁻¹.

With B10 the Kd was 0.0136 nM.

With B10 the koff was 3.58e-07 s⁻¹.

B10 gave a kon of 26200 M⁻¹ s⁻¹.

These binders were tested against T2, WNV E protein DIII displayed on yeast (assay: flow cytometry on yeast displaying WNV E DIII (pYD1); % positive cells).

B11: no binding.
B12: no binding.
B13: no binding.
B14: no binding.
B15: no binding.
B10: no binding.
B16: no binding.

The binders below were run against T1, Recombinant WNV-E protein ectodomain (assay: not given).

Point of comparison: B9, “EC50 (read off the curve)” value ~0.3 µg/mL. Against it:
- B6 — within 1.5-fold, ~0.4 µg/mL

These binders were tested against West Nile virus E protein on WNV strain 2741 virions (West Nile virus, UniProt Q9Q6P4 291-791) (assay: cell-based or functional assay).
West Nile virus E protein on WNV strain 2741 virions, sequence (Q9Q6P4 291-791 limits assumed): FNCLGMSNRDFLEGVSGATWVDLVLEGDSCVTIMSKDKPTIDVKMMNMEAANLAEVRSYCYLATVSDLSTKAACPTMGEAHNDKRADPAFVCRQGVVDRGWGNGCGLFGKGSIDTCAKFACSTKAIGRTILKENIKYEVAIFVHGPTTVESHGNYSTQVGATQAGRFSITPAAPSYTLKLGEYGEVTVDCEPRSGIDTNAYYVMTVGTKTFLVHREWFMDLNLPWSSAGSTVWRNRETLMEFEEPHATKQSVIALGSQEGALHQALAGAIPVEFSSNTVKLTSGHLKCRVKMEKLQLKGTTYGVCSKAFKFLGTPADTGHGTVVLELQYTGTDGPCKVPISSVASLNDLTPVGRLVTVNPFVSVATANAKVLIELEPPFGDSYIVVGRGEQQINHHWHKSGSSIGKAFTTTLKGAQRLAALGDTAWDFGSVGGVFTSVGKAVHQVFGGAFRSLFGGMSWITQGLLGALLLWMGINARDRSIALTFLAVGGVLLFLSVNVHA

Point of comparison: B12, “PRNT80 titer (µg/ml), plaque reduction neutralization of WNV on Vero cells” value 1.25 µg/mL. Against it:
- B11 — 2-fold higher, 2.5 µg/mL
- B13 — the same, 1.25 µg/mL
- B15 — 10-fold higher, 12.5 µg/mL
- B10 — 4-fold higher, 5 µg/mL
- B16 — the same, 1.25 µg/mL

Each binder was assayed against T1, Recombinant WNV-E protein ectodomain (assay: ELISA; plate coated with rWNV-E (1 ug/ml), purified His6-tagged scFv, anti-His6-HRP, OD450).

B1 was tested, and the “EC50 (read off the curve)” value was roughly 0.2 µg/mL.
